Data reported in paper PMC2780661.

How the values were obtained:
[1] = target: ATP synthase from mitochondria of Zea mays (Z. mays (endogenous in mitochondria)); assay: single particle electron microscopy
[2] = target: Complex III2 from potato (potato)

stoichiometry N [1] | stoichiometry N [2] | Substance
2 | – | ATP synthase from mitochondria of Zea mays (complex)
– | 2 | Complex I from potato
